Experimental findings from patent publication US20200199241A1 (Chugai, published 2020) are described below.

The chains are these.
B1: IgG1-F1314 (antibody)
heavy: QVQLQESGPGLVKPSETLSLTCAVSGHSISHDHAWSWVRQPPGEGLEWIGFISYSGITNYNPSLQGRVTISRDNSKNTLYLQMNSLRAEDTAVYYCARSLARTTAMDYWGEGTLVTVSSASTKGPSVFPLAPSSKSTSGGTAALGCLVKDYFPEPVTVSWNSGALTSGVHTFPAVLQSSGLYSLSSVVTVPSSSLGTQTYICNVNHKPSNTKVDKKVEPKSCDKTHTCPPCPAPELRGGPKVFLFPPKPKDTLYISRTPEVTCVVVDVSHEDPEVKFNWYVDGVEVHNAKTKPREEQYNSTYRVVSVLTVLHQDWLNGKEYKCKVSNKALPAPIEKTISKAKGQPREPQVYTLPPSRDELTKNQVSLTCLVKGFYPSDIAVEWESNGQPENNYKTTPPVLDSDGSFFLYSKLTVDKSRWQQGNVFSCSVMHEALDYHVTLKLLSLSP
light: not shown
notes: EU numbering; copies: 2 + 2
B2: IgG1-F1363 (antibody)
heavy: B1 heavy with S256T, V438F, L440R, L442E
light: not shown
notes: EU numbering; copies: 2 + 2
B3: IgG1-F1345 (antibody)
heavy: B1 heavy with G238R, D435H, L440K, L442E
light: not shown
notes: EU numbering; copies: 2 + 2
B4: IgG1-F1373 (antibody)
heavy: B1 heavy with S256T, T258E, V438F, L440K, L442E
light: not shown
notes: EU numbering; copies: 2 + 2
B5: IgG1-F1331 (antibody)
heavy: B1 heavy with G238R, S256T, T258E, D435H, L440R, L442E
light: not shown
notes: EU numbering; copies: 2 + 2
B6: IgG1-F1351 (antibody)
heavy: B1 heavy with D435H, V438F, L440R, L442E
light: not shown
notes: EU numbering; copies: 2 + 2
B7: IgG1-F1342 (antibody)
heavy: B1 heavy with T258E, D435H, V438T, L440K, L442E
light: not shown
notes: EU numbering; copies: 2 + 2
B8: IgG1-F1336 (antibody)
heavy: B1 heavy with G238R, T258E, D435H, L440K, L442D
light: not shown
notes: EU numbering; copies: 2 + 2
B9: IgG1-F1368 (antibody)
heavy: B1 heavy with S256T, T258E, D435H, V438F, L440K, L442E
light: not shown
notes: EU numbering; copies: 2 + 2
B10: IgG1-F1360 (antibody)
heavy: B1 heavy with S256T, V438T, L440K, L442E
light: not shown
notes: EU numbering; copies: 2 + 2
B11: IgG1-F1361 (antibody)
heavy: B1 heavy with S256T, V438T, L440R, L442E
light: not shown
notes: EU numbering; copies: 2 + 2
B12: IgG1-F1327 (antibody)
heavy: QVQLQESGPGLVKPSETLSLTCAVSGHSISHDHAWSWVRQPPGEGLEWIGFISYSGITNYNPSLQGRVTISRDNSKNTLYLQMNSLRAEDTAVYYCARSLARTTAMDYWGEGTLVTVSSASTKGPSVFPLAPSSKSTSGGTAALGCLVKDYFPEPVTVSWNSGALTSGVHTFPAVLQSSGLYSLSSVVTVPSSSLGTQTYICNVNHKPSNTKVDKKVEPKSCDKTHTCPPCPAPEAAGGPSVFLFPPKPKDVLYISRTPEVTCVVVDVSHEDPEVKFNWYVDGVEVHNAKTKPREEQYASTYRVVSVLQPLHADWLNGKEYKCKVSNKALPAPIEKTISKAKGQPREPQVYTLPPSRDELTKNQVSLTCLVKGFYPSDIAVEWESNGQPENNYKTTPPVLDSDGSFFLYSKLTVDKSRWQQGNVFSCSVMHEALHYHVTQKSLSLSP
light: not shown
notes: copies: 2 + 2
B13: IgG1-F1322 (antibody)
heavy: B1 heavy with S256T, L440R, L442D
light: not shown
notes: EU numbering; copies: 2 + 2
B14: IgG1-F1375 (antibody)
heavy: B1 heavy with S256T, D435H, L440Q, L442S
light: not shown
notes: EU numbering; copies: 2 + 2
B15: IgG1-F1320 (antibody)
heavy: B1 heavy with S256T, D435H, L440R, L442D
light: not shown
notes: EU numbering; copies: 2 + 2
B16: IgG1-F1349 (antibody)
heavy: B1 heavy with D435H, V438T, L440R, L442E
light: not shown
notes: EU numbering; copies: 2 + 2
B17: IgG1-F1355 (antibody)
heavy: B1 heavy with V438F, L440R, L442E
light: not shown
notes: EU numbering; copies: 2 + 2
B18: IgG1-F1337 (antibody)
heavy: B1 heavy with T258E, D435H, L440K, L442E
light: not shown
notes: EU numbering; copies: 2 + 2
B19: IgG1-F1343 (antibody)
heavy: B1 heavy with S256T, T258E, D435H, V438T, L440K, L442E
light: not shown
notes: EU numbering; copies: 2 + 2
B20: IgG1-F1323 (antibody)
heavy: B1 heavy with S256T, L440K, L442E
light: not shown
notes: EU numbering; copies: 2 + 2
B21: IgG1-F1354 (antibody)
heavy: B1 heavy with V438F, L440K, L442E
light: not shown
notes: EU numbering; copies: 2 + 2
B22: IgG1-F1347 (antibody)
heavy: B1 heavy with G238R, T258E, D435H, L440K, L442E
light: not shown
notes: EU numbering; copies: 2 + 2
B23: IgG1-F1371 (antibody)
heavy: B1 heavy with S256T, T258E, L440R, L442E
light: not shown
notes: EU numbering; copies: 2 + 2
B24: IgG1-F1366 (antibody)
heavy: B1 heavy with T258E, V438F, L440K, L442E
light: not shown
notes: EU numbering; copies: 2 + 2
B25: IgG1-F1362 (antibody)
heavy: B1 heavy with S256T, V438F, L440K, L442E
light: not shown
notes: EU numbering; copies: 2 + 2
B26: IgG1-F1329 (antibody)
heavy: B1 heavy with G238R, S256T, D435H, L440R, L442E
light: not shown
notes: EU numbering; copies: 2 + 2
B27: IgG1-F1367 (antibody)
heavy: B1 heavy with S256T, T258E, D435H, V438T, L440R, L442E
light: not shown
notes: EU numbering; copies: 2 + 2
B28: IgG1-F1359 (antibody)
heavy: B1 heavy with S256T, D435H, V438F, L440R, L442E
light: not shown
notes: EU numbering; copies: 2 + 2
B29: IgG1-F1372 (antibody)
heavy: B1 heavy with S256T, T258E, V438T, L440R, L442E
light: not shown
notes: EU numbering; copies: 2 + 2
B30: IgG1-F1365 (antibody)
heavy: B1 heavy with T258E, V438T, L440K, L442E
light: not shown
notes: EU numbering; copies: 2 + 2
B31: IgG1-F1344 (antibody)
heavy: B1 heavy with D435H, V438T, L440K, L442E
light: not shown
notes: EU numbering; copies: 2 + 2
B32: IgG1-F1357 (antibody)
heavy: B1 heavy with S256T, D435H, V438T, L440R, L442E
light: not shown
notes: EU numbering; copies: 2 + 2
B33: IgG1-F1353 (antibody)
heavy: B1 heavy with V438T, L440R, L442E
light: not shown
notes: EU numbering; copies: 2 + 2
B34: IgG1-F1338 (antibody)
heavy: B1 heavy with T258E, L440K, L442E
light: not shown
notes: EU numbering; copies: 2 + 2
B35: IgG1-F1319 (antibody)
heavy: B1 heavy with R237L, K241S, L330Y, D435H, V438Y, L440Q, L442S
light: not shown
notes: EU numbering; copies: 2 + 2
B36: IgG1-F1370 (antibody)
heavy: B1 heavy with S256T, T258E, L440K, L442E
light: not shown
notes: EU numbering; copies: 2 + 2
B37: IgG1-F1330 (antibody)
heavy: B1 heavy with G238R, T258E, D435H, L440R, L442E
light: not shown
notes: EU numbering; copies: 2 + 2
B38: IgG1-F1328 (antibody)
heavy: B1 heavy with G238R, D435H, L440R, L442E
light: not shown
notes: EU numbering; copies: 2 + 2
B39: IgG1-F1348 (antibody)
heavy: B1 heavy with G238R, S256T, T258E, D435H, L440K, L442E
light: not shown
notes: EU numbering; copies: 2 + 2
B40: IgG1-F1341 (antibody)
heavy: B1 heavy with S256T, D435H, V438T, L440K, L442E
light: not shown
notes: EU numbering; copies: 2 + 2
B41: IgG1-F1334 (antibody)
heavy: B1 heavy with G238R, D435H, L440K, L442D
light: not shown
notes: EU numbering; copies: 2 + 2
B42: IgG1-F1321 (antibody)
heavy: B1 heavy with S256T, D435H, L440K, L442E
light: not shown
notes: EU numbering; copies: 2 + 2
B43: IgG1-F1374 (antibody)
heavy: B1 heavy with S256T, T258E, V438F, L440R, L442E
light: not shown
notes: EU numbering; copies: 2 + 2
B44: IgG1-F1326 (antibody)
heavy: B12 heavy with A299N
light: not shown
notes: copies: 2 + 2
B45: IgG1-F1352 (antibody)
heavy: B1 heavy with V438T, L440K, L442E
light: not shown
notes: EU numbering; copies: 2 + 2
B46: IgG1-F1358 (antibody)
heavy: B1 heavy with S256T, D435H, V438F, L440K, L442E
light: not shown
notes: EU numbering; copies: 2 + 2
B47: IgG1-F1350 (antibody)
heavy: B1 heavy with D435H, V438F, L440K, L442E
light: not shown
notes: EU numbering; copies: 2 + 2
B48: IgG1-F1346 (antibody)
heavy: B1 heavy with G238R, S256T, D435H, L440K, L442E
light: not shown
notes: EU numbering; copies: 2 + 2

Where a chain is given by its changes, count along the chain named.

T1 sequence (chain, as listed by the source limits assumed, chain 1 of 2): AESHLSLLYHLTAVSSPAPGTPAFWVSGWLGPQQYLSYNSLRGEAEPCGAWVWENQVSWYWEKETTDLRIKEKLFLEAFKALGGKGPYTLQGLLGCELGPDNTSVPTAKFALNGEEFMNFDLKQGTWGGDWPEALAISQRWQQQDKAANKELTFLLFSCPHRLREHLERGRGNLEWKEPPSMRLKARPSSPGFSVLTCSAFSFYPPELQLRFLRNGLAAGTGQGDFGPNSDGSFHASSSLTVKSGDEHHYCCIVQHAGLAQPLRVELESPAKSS
T1 sequence (P61769 21-119 limits assumed, chain 2 of 2): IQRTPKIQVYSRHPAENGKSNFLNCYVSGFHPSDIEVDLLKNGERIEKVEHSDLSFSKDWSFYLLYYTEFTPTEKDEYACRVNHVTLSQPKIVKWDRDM

This assay addresses T1, soluble human FcRn complexed with β2-microglobulin (human, UniProt P61769 21-119, limits assumed).
T1 construct: also called hFcRn
In words: Biacore SPR, pH 7.0.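 Further: test antibodies captured on a Protein L chip with human FcRn flowed over as analyte, KD obtained as the ratio of dissociation to association rate constants.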
On to B1, for which the Kd (usually a measure of binding affinity in units of concentration) amounted to 227 nM. This counts as sub-micromolar. The value for B2 was 190 nM; that for B3 was 105 nM; that for B4 was 86.7 nM. As to B5, the Kd amounted to 77.5 nM. This Kd and that of the molecule before are within 1.5-fold of each other.

In the case of B6, the dissociation constant Kd stood at 162 nM.

B7 came in with a Kd of 251 nM. The molecule B8 returned a Kd of 71.8 nM. Consider B9, for which the Kd turned out to be 54.9 nM. This Kd and that of the molecule before are within 1.5-fold of each other.

B10 yielded a dissociation constant Kd of 312 nM. This Kd lies about 5.7-fold higher than the previous one. The figure for B11 is 352 nM; for B12 it is 14.1 nM; for B13 it is 160 nM. The value for B14 was 103 nM.

The molecule B15 came in with a Kd of 122 nM. The figure for B16 is 336 nM; for B17 it is 247 nM.

For the molecule B18, binding was put at a Kd of 74.1 nM. Compared with the last molecule, the Kd is about 3.3-fold lower. The value for B19 was 201 nM.

For B20, the affinity, expressed as Kd, was 149 nM. The figure for B21 is 229 nM; for B22 it is 71.4 nM; for B23 it is 109 nM. B24 gave an equilibrium dissociation constant (Kd) of 117 nM. This Kd and that of the molecule before are within 1.5-fold of each other. The value for B25 was 141 nM; that for B26 was 129 nM; that for B27 was 179 nM. Molecule B28 returned a dissociation constant (Kd) of 128 nM. This Kd and that of the molecule before are within 1.5-fold of each other.

The molecule B29 returned an equilibrium dissociation constant (Kd) of 228 nM.

In turn, B30 came in with a Kd of 314 nM. The Kd values of the last two molecules are within 1.5-fold of each other.

B31 gave a Kd of 396 nM.

For B32, the Kd is 281 nM. The molecule B33 came in with a Kd of 433 nM. The value for B34 was 104 nM; that for B35 was 267 nM; that for B36 was 91.4 nM.

B37: the equilibrium dissociation constant (Kd) was found to be 103 nM. The figure for B38 is 152 nM; for B39 it is 55.2 nM; for B40 it is 322 nM. B41: the dissociation constant (Kd) was found to be 104 nM. The value for B42 was 103 nM. The value for B43 was 120 nM. B44: the Kd came out at 10.9 nM. As to B45, the affinity, expressed as Kd, was 393 nM.

In the case of B46, the affinity, expressed as Kd, was 90.7 nM. B47 yielded a Kd of 118 nM.

On to B48, for which binding was characterised by a dissociation constant (Kd) of 85.9 nM. The Kd values of the last two molecules are within 1.5-fold of each other.
